Laboratory results reported in PMC9935901, “B-lymphoid tyrosine kinase-mediated FAM83A phosphorylation elevates pancreatic tumorigenesis through interacting with β-catenin” (Signal Transduction and Targeted Therapy, 2023).
“Also recorded” adds a separate entry of the source.

Experiments:
[1] = test system: β-catenin stability; assay: β-catenin protein stability upon CHX treatment in PANC-1 cells; assay type: cell-based, human; conditions: peptide treatment or GFP-fusion transfection, n = 3
Description: Fig. 8 Peptides disrupting FAM83A-β-catenin interaction inhibit Wnt/β-catenin signaling. a Identification of β-catenin binding α-helical peptide(s) in FAM83A DUF1669 (140aa–210aa) region. The secondary structure of the FAM83A DUF1669 (140aa–210aa) region was analyzed based on the PDB data (4urj). b The FaPC, FaP1, FaP2, and FaP3 fragments were constructed into pEGFP-C1 expression vector connection with a flexible linker ((GGGGS)n). The interactions between β-catenin and the four fragments were evaluated with Co-IP assays in HEK293T cells (n = 3). c, d The predicted docking model of FaP2, FaP3 with β-catenin 530–666 aa region. e, f Kinetic interactions of cell-penetrating peptide TAT-linked peptides with β-catenin was determined by surface plasmon resonance analyses. g Effect of CP-FaP2 and CP-FaP3 on β-catenin-FAM83A and β-catenin-TCF4 interactions in PANC-1 cells. Cells were treated with control (CP-FaPC), CP-FaP2, and CP-FaP3 (5 μM) for 24 hours. Cell lysates were used for IP and western blotting with the indicated antibodies (n = 3). h The schematic diagram of 7TGC plasmid construction and the fluorescence images of PANC-1 cells with control, CP-FaP2, and CP-FaP3 treatment. […]

[2] = test system: β-catenin destruction complex; assay: Co-IP, β-catenin with AXIN1 and GSK3β in PANC-1 cells; assay type: cell-based, human; conditions: peptide treatment or GFP-fusion transfection, n = 3
[3] = test system: β-catenin ubiquitination (HEK293T cells); assay: β-catenin ubiquitination in HEK293T cells; assay type: cell-based; conditions: GFP-fusion transfection, n = 3
[4] = test system: FAM83A expression; assay: FAM83A expression after Wnt3a treatment in PANC-1 cells; assay type: cell-based, human
From the text: Fig. 7 FAM83A is a direct downstream target of Wnt/β-catenin signaling and forms positive feedback in pancreatic cancer cells. a–d Representative western blotting images of the protein and mRNA levels of FAM83A after Wnt3a treatment for indicated concentrations and times in PANC-1 cells (n = 3). e, f The protein and mRNA levels of FAM83A after β-catenin knockdown in PANC-1 cells. Cell lysates were used for western blotting with the indicated antibodies (n = 3). g FAM83A gene promoter-reporter luciferase activity in HEK293T cells with or without β-catenin overexpression (left) and PANC-1 cells with or without β-catenin knockdown (right) (n = 6). h The schematic diagram of FAM83A gene promoter truncation and deletion generation. i PACN-1 cells were subjected to chromatin immunoprecipitation using antibodies against TCF4 and IgG, and the fold change of TCF/IgG was quantified (n = 3). j Predicted TCF4/LEF-binding sequence in the FAM83A gene promoter from the JASPAR website. k Schematic diagram of the generated luciferase report plasmids and the relative luciferase activity after transfection with the plasmids in HEK293T cells with or without Wnt3a treatment (n = 6). l A ChIP experiment was used to detect binding between the β-catenin-TCF4 complex and the predicted TCF/LEF-binding element in the FAM83A promoter (TBE1 and TBE2). […]

[5] = test system: FAM83A localization; assay: FAM83A nuclear translocation upon Wnt3a treatment; assay type: cell-based; conditions: confocal microscopy, nucleo-plasmic separation; Wnt3a 100 ng/mL; HEK293T, PANC-1
Description: Protein interactions were analyzed by western blotting (n = 3). Scale bars: 10 µm. *P < 0.05; **P < 0.01; ***P < 0.001. Data were presented as mean ± SD
Protein interactions were analyzed by western blotting (n = 3). c The level of β-catenin ubiquitination with or without Flag-tagged FAM83A overexpression or BLK kinase knockdown after MG132 treatment in HEK293T cells. Cell lysates were used for IP and western blotting with the indicated antibodies (n = 3). d The level of β-catenin ubiquitination with or without Flag-tagged FAM83A, Y138A, or Y138D mutants overexpression after MG132 treatment in HEK293T cells. […] Cell lysates were used for IP and western blotting with the indicated antibodies (n = 3). f The localization of Flag-tagged FAM83A and its Y138A, Y138D mutants in HEK293T cells were analyzed with confocal microscopy. g The protein level of cytoplasmic and nuclear β-catenin in HEK293T cells with or without Flag-tagged FAM83A, Y138A, or Y138D mutants transfection and Wnt3a treatment. […]

Row | Molecule | stability of β-catenin [1] | assembly of β-catenin destruction complex [2] | β-catenin ubiquitination [3] | FAM83A mRNA level [4] | FAM83A protein level ([4]; n = 3) | FAM83A nuclear translocation [5]
1 | GFP-FaP2: FaP2 fused with GFP via a flexible linker ((GGGGS)n), pEGFP-C1 expression vector, transfected (protein, left off: EGFP (from the vector pEGFP-C1), end not stated, kept, FaP2 fused with GFP via a flexible linker ((GGGGS)n), pEGFP-C1 expression vector, transfected) ASAEKPYLKEKSSATVYFQTVKHNNIRDLVRRCITRTSQVLVILMDVFTDVEIFCDILEAANKRGVFVCVLLDQGGVKLFQEMCDKVQISDSHLKNISIRSVEGEIYCAKSGRKFAGQIREKFIISDWRFVLSGSYSFTWLCGHVHRNILSKFTGQAVELFDEEFRHLYASSKPVMGLKSPRL | decreased | improved | improved |  |  | 
2 | GFP-FaP3: FaP3 fused with GFP via a flexible linker ((GGGGS)n), pEGFP-C1 expression vector, transfected (protein, left off: EGFP (from the vector pEGFP-C1), end not stated, kept, FaP3 fused with GFP via a flexible linker ((GGGGS)n), pEGFP-C1 expression vector, transfected) ASAEKPYLKEKSSATVYFQTVKHNNIRDLVRRCITRTSQVLVILMDVFTDVEIFCDILEAANKRGVFVCVLLDQGGVKLFQEMCDKVQISDSHLKNISIRSVEGEIYCAKSGRKFAGQIREKFIISDWRFVLSGSYSFTWLCGHVHRNILSKFTGQAVELFDEEFRHLYASSKPVMGLKSPRL | decreased | improved | improved |  |  | 
3 | Wnt3a: Wnt agonist, Abcam ab153563 (protein, UniProt P56704 19-352, looked up) Protein Wnt-3a: SYPIWWSLAVGPQYSSLGSQPILCASIPGLVPKQLRFCRNYVEIMPSVAEGIKIGIQECQHQFRGRRWNCTTVHDSLAIFGPVLDKATRESAFVHAIASAGVAFAVTRSCAEGTAAICGCSSRHQGSPGKGWKWGGCSEDIEFGGMVSREFADARENRPDARSAMNRHNNEAGRQAIASHMHLKCKCHGLSGSCEVKTCWWSQPDFRAIGDFLKDKYDSASEMVVEKHRESRGWVETLRPRYTYFKVPTERDLVYYEASPNFCEPNPETGSFGTRDRTCNVSSHGIDGCDLLCCGRGHNARAERRREKCRCVFHWCCYVSCQECTRVYDVHTCK |  |  |  | elevated both the protein and mRNA levels of FAM83A in dose- and time-dependent manners | elevated both the protein and mRNA levels of FAM83A in dose- and time-dependent manners | FAM83A shifted from the cell cytoplasm to nucleus upon Wnt3a treatment; also recorded: increased the nuclear translocation of FAM83A
